This note sets out measurements from article PMC2830148 (Biochemistry, 2009).

Positions count from the first letter of the chain named. Numbers in names are those of the source.

The data set concerns the molecule itself. The experiment in a line: SEC. A general note: In gel filtration, larger molecules generally elute earlier.

B1: human TRAF2 construct RZ1 (RING and first zinc finger domains, residues 1-133-His), wild type (domain or fragment, UniProt Q12933 1-133, looked up)
chain: MAAASVTPPGSLELLQPGFSKTLLGTKLEAKYLCSACRNVLRRPFQAQCGHRYCSFCLASILSSGPQNCAACVHEGIYEEGISILESSSAFPDNAARREVESLPAVCPSDGCTWKGTLKEYESCHEGRCPLML
As a reminder, the stoichiometry N is the number of molecules, sites or subunits per partner or assembly. With B1, the “stoichiometry N” value is 2.

B2: TRAF2 RZ1 Q46A mutant (domain or fragment, human, UniProt Q12933 1-133, looked up)
chain: B1 chain with Q46A
For B2, the binding result is on record as “binds”.

B3: TRAF2 RZ1 N94A mutant (domain or fragment, human, UniProt Q12933 1-133, looked up)
chain: B1 chain with N94A
Regarding B3, the binding result is listed as “binds”.
